Data from paper PMC9763423.

Molecular target: JOSD1 (UniProt Q15040)
Assay: co-immunoprecipitation, immunoblot
Details: reference: Flag-MCL1 WT; sites S159

In the case of “MCL-1 (from UniProt Q07820) Flag-MCL1 S159A”, the “binding against the reference” value is reported as “stronger”.
